Data taken from paper PMC8473235.

system: GST-VPg (Tulane virus) (Tulane virus); assay: ELASA

Row | Sequence | binding signal (positive:negative absorbance ratio)
1 | AGTATACGTATTACCTGCAGCAAGGCTTTTTTAAAGGCTAGGCTTGATAATCGGTTAACTCCGATATCTCGGAGATCTTGC [N4-2] | > 10
2 | AGTATACGTATTACCTGCAGCAGGGATGTGTTGGATGCATGCCAGGCTTGGTAACATTGTACGATATCTCGGAGATCTTGC [N3] | > 10
3 | AGTATACGTATTACCTGCAGCAGTGGGTGGTGATGAATTCTGGTCGCGCTGACAACCCGCGCGATATCTCGGAGATCTTGC [N14] | > 10
4 | AGTATACGTATTACCTGCAGCCAGAGTTGATGTAAGCTTCGTGTTAGCTCAACTCTTATCGCGATATCTCGGAGATCTTGC [N6] | > 10
5 | AGTATACGTATTACCTGCAGCCGGGTCTCGTCTATGCAGTACTCAAAACGCTTGAGGTACCGACGATATCTCGGAGATCTTGC [N1-2] | > 10
6 | AGTATACGTATTACCTGCAGCTAGTAACGATTACCAAAATTCTCCCGAGGCTGACAACCCGCGATATCTCGGAGATCTTGC [T1-2] | > 10
7 | AGTATACGTATTACCTGCAGCTCACACTCGTTTCTATTACTAAAACATCGTTCCTTTCAGCCGATATCTCGGAGATCTTGC [T5 (= N12-2)] | > 10
8 | AGTATACGTATTACCTGCAGCTCGAGGTATGGCCTTGTCTAGGCGCACCTGACAACCCGGTGCGATATCTCGGAGATCTTGC [T9-2] | > 10
9 | AGTATACGTATTACCTGCAGCTCTTCGGTTTAATAAAGTTGGCTAGGAAAGTTTAAAACCGCGATATCTCGGAGATCTTGC [N13] | > 5
10 | AGTATACGTATTACCTGCAGCTGGAAGGCGGGAAGATTTTTGGTCGACCTGACAACCCGGTCGATATCTCGGAGATCTTGC [T9] | > 10
11 | AGTATACGTATTACCTGCAGCTGTCGATAAAGTGAGTTAAGTCACCGGCCCGGCCTATTCGCGATATCTCGGAGATCTTGC [N11-2] | > 10
12 | AGTATACGTATTACCTGCAGCTGTCGTTAATTATTCGTGATCTGACAACCCGATCACTCTCCGATATCTCGGAGATCTTGC [T10-2] | > 10
